Measured values published in the supplement of paper PMC9112550, “Optimization of the antimicrobial peptide Bac7 by deep mutational scanning” (BMC Biology, 2022).
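Note: peptides expressed intracellularly from a pBAD plasmid library in pooled LB shake-flask culture, induced with 0.3% L-arabinose, DNA abundance read by NGS, three biological replicates, DESeq2 with apeglm shrinkage.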

The sequences below were run on Escherichia coli TOP10 (assay: shrunken log2 fold change of peptide-encoding DNA abundance (4.5 h post-induction vs induction); higher = less antimicrobial activity (less host growth inhibition)). Conditions: time post-induction: 4.5 h; library: site-saturation at positions 5, 18, 19, 20.
For RRIRRRPPRLPRPRPRPFQWPRP, the “shrunken log2 fold change” value was 0.194. With RRIRIRPPRLPRPRPRPYLYPRP the “shrunken log2 fold change” value was -0.544. In the case of RRIRWRPPRLPRPRPRPGYQPRP, the “shrunken log2 fold change” value is reported as -0.00973. With RRIRFRPPRLPRPRPRPNPSPRP the “shrunken log2 fold change” value was -0.125. With RRIRARPPRLPRPRPRPWRWPRP the “shrunken log2 fold change” value was 0.451. For RRIRYRPPRLPRPRPRPSEFPRP, the “shrunken log2 fold change” value was -0.218. For RRIRNRPPRLPRPRPRPCTFPRP, the “shrunken log2 fold change” value was -0.0494. In the case of RRIRVRPPRLPRPRPRPKPIPRP, the “shrunken log2 fold change” value is reported as -0.0649. With RRIRDRPPRLPRPRPRPVKTPRP the “shrunken log2 fold change” value was 0.0145. For RRIRCRPPRLPRPRPRPAEFPRP, the “shrunken log2 fold change” value was -0.0616. For RRIRPRPPRLPRPRPRPVISPRP, the “shrunken log2 fold change” value was -0.00579. RRIRYRPPRLPRPRPRPIYKPRP was tested, and the “shrunken log2 fold change” value was -0.396. In the case of RRIRYRPPRLPRPRPRPNYDPRP, the “shrunken log2 fold change” value is reported as -0.746. With RRIRSRPPRLPRPRPRPQKLPRP the “shrunken log2 fold change” value was 0.0126. In the case of RRIRPRPPRLPRPRPRPFVFPRP, the “shrunken log2 fold change” value is reported as -0.2. RRIRRRPPRLPRPRPRPVTKPRP was tested, and the “shrunken log2 fold change” value was 0.28. In the case of RRIRARPPRLPRPRPRPKALPRP, the “shrunken log2 fold change” value is reported as 0.294. RRIRVRPPRLPRPRPRPRHLPRP was tested, and the “shrunken log2 fold change” value was -0.222. RRIRRRPPRLPRPRPRPMYCPRP was tested, and the “shrunken log2 fold change” value was -0.574. For RRIRARPPRLPRPRPRPIITPRP, the “shrunken log2 fold change” value was -0.298. For RRIRDRPPRLPRPRPRPEELPRP, the “shrunken log2 fold change” value was 0.00153. In the case of RRIRNRPPRLPRPRPRPLHTPRP, the “shrunken log2 fold change” value is reported as 0.0669. RRIRMRPPRLPRPRPRPQEMPRP was tested, and the “shrunken log2 fold change” value was -0.0105. For RRIRYRPPRLPRPRPRPNALPRP, the “shrunken log2 fold change” value was -0.236. For RRIRRRPPRLPRPRPRPPMAPRP, the “shrunken log2 fold change” value was 0.487. In the case of RRIRSRPPRLPRPRPRPTCSPRP, the “shrunken log2 fold change” value is reported as 0.0811. With RRIRFRPPRLPRPRPRPQLRPRP the “shrunken log2 fold change” value was 0.0318. RRIRPRPPRLPRPRPRPIVIPRP was tested, and the “shrunken log2 fold change” value was -0.328. In the case of RRIRKRPPRLPRPRPRPPGYPRP, the “shrunken log2 fold change” value is reported as 0.176. RRIRKRPPRLPRPRPRPTSIPRP was tested, and the “shrunken log2 fold change” value was 0.208. With RRIRSRPPRLPRPRPRPALKPRP the “shrunken log2 fold change” value was 0.161. RRIRSRPPRLPRPRPRPWTWPRP was tested, and the “shrunken log2 fold change” value was -0.0804. For RRIRYRPPRLPRPRPRPDQQPRP, the “shrunken log2 fold change” value was -0.0144. RRIRGRPPRLPRPRPRPFSGPRP was tested, and the “shrunken log2 fold change” value was -0.325. With RRIRKRPPRLPRPRPRPWPIPRP the “shrunken log2 fold change” value was 0.891. In the case of RRIRSRPPRLPRPRPRPQICPRP, the “shrunken log2 fold change” value is reported as -0.0872. With RRIRARPPRLPRPRPRPFSYPRP the “shrunken log2 fold change” value was -0.0901. RRIRFRPPRLPRPRPRPRWTPRP was tested, and the “shrunken log2 fold change” value was 1.19. With RRIRGRPPRLPRPRPRPCPKPRP the “shrunken log2 fold change” value was 0.193. In the case of RRIRKRPPRLPRPRPRPTVIPRP, the “shrunken log2 fold change” value is reported as -0.15. RRIRDRPPRLPRPRPRPLNTPRP was tested, and the “shrunken log2 fold change” value was -0.0995. For RRIRTRPPRLPRPRPRPQMLPRP, the “shrunken log2 fold change” value was -0.0274. For RRIRHRPPRLPRPRPRPIENPRP, the “shrunken log2 fold change” value was -0.143. RRIRKRPPRLPRPRPRPKRAPRP was tested, and the “shrunken log2 fold change” value was 1.04. RRIRGRPPRLPRPRPRPTGDPRP was tested, and the “shrunken log2 fold change” value was 0.782. RRIRMRPPRLPRPRPRPNCYPRP was tested, and the “shrunken log2 fold change” value was -0.26. RRIRGRPPRLPRPRPRPCMMPRP was tested, and the “shrunken log2 fold change” value was 0.145. For RRIRCRPPRLPRPRPRPMRDPRP, the “shrunken log2 fold change” value was 0.281. RRIRPRPPRLPRPRPRPEPWPRP was tested, and the “shrunken log2 fold change” value was 0.232. With RRIRNRPPRLPRPRPRPHYTPRP the “shrunken log2 fold change” value was -0.0895. With RRIRIRPPRLPRPRPRPMGTPRP the “shrunken log2 fold change” value was -0.0384. RRIRIRPPRLPRPRPRPWCWPRP was tested, and the “shrunken log2 fold change” value was -0.146. For RRIRWRPPRLPRPRPRPHMSPRP, the “shrunken log2 fold change” value was 0.033. With RRIRTRPPRLPRPRPRPRVFPRP the “shrunken log2 fold change” value was 0.212. RRIRSRPPRLPRPRPRPGNPPRP was tested, and the “shrunken log2 fold change” value was 0.0113. With RRIRYRPPRLPRPRPRPPAYPRP the “shrunken log2 fold change” value was -0.767. For RRIRLRPPRLPRPRPRPTVLPRP, the “shrunken log2 fold change” value was -0.126. For RRIRCRPPRLPRPRPRPTYNPRP, the “shrunken log2 fold change” value was -0.722. For RRIRGRPPRLPRPRPRPREKPRP, the “shrunken log2 fold change” value was 0.969. With RRIRTRPPRLPRPRPRPLEMPRP the “shrunken log2 fold change” value was 0.0834. For RRIRRRPPRLPRPRPRPAGTPRP, the “shrunken log2 fold change” value was -0.0331. For RRIRWRPPRLPRPRPRPKCYPRP, the “shrunken log2 fold change” value was -0.0376. In the case of RRIRHRPPRLPRPRPRPQCNPRP, the “shrunken log2 fold change” value is reported as -0.169. RRIRTRPPRLPRPRPRPMPRPRP was tested, and the “shrunken log2 fold change” value was 0.175. With RRIRRRPPRLPRPRPRPCEDPRP the “shrunken log2 fold change” value was 0.0155. In the case of RRIRQRPPRLPRPRPRPFYLPRP, the “shrunken log2 fold change” value is reported as -0.437. With RRIRFRPPRLPRPRPRPELPPRP the “shrunken log2 fold change” value was -0.0615. RRIRTRPPRLPRPRPRPWCRPRP was tested, and the “shrunken log2 fold change” value was -0.263. For RRIRKRPPRLPRPRPRPYYFPRP, the “shrunken log2 fold change” value was -0.234. For RRIRTRPPRLPRPRPRPGDDPRP, the “shrunken log2 fold change” value was 0.24. In the case of RRIRDRPPRLPRPRPRPMFGPRP, the “shrunken log2 fold change” value is reported as 0.12. With RRIRCRPPRLPRPRPRPDGGPRP the “shrunken log2 fold change” value was 0.196. In the case of RRIRQRPPRLPRPRPRPAGCPRP, the “shrunken log2 fold change” value is reported as 0.409. RRIRWRPPRLPRPRPRPYLFPRP was tested, and the “shrunken log2 fold change” value was -0.31. With RRIRIRPPRLPRPRPRPWHMPRP the “shrunken log2 fold change” value was -0.0375.
